# Patent US20240116985A1, “STAPLED PEPTIDES AND METHODS THEREOF” (priority 2020, published 2024)
# Starred links: 1 amine or outer side, 2 acyl side, 3 side chain; linkers in the order of their positions; H or OH if unused. Positions of bridges follow the written chain, without caps; N, C: chain ends. Non-standard residues stand in square brackets, D forms with d. Primed or numbered codes have the meaning given here. *: point of attachment. PyrS2″ = (S)-3-amino-1-((pent-4-en-1-yloxy)carbonyl)pyrrolidine-3-carboxylic acid (stapling residue), C=CCCCOC(=O)N1CC[C@@](N[*:1])(C(=O)[*:2])C1; B5(16) = 2-amino-2-(pent-4-en-1-yl)hept-6-enoic acid = 2,2-bis(4-pentenyl)glycine (stitching residue), C=CCCCC(CCCC=C)(N[*:1])C(=O)[*:2]; B5(5) = 2,2-bis(4-pentenyl)glycine, 2-amino-2-(pent-4-en-1-yl)hept-6-enoic acid (stitching residue), C=CCCCC(CCCC=C)(N[*:1])C(=O)[*:2]; PyrS2 = (S)-3-amino-1-((pent-4-en-1-yloxy)carbonyl)pyrrolidine-3-carboxylic acid, C=CCCCOC(=O)N1CC[C@@](N[*:1])(C(=O)[*:2])C1; B5(12) = 2-amino-2-(pent-4-en-1-yl)hept-6-enoic acid (two olefin side chains), C=CCCCC(CCCC=C)(N[*:1])C(=O)[*:2]; B5(3) = 2,2-bis(4-pentenyl)glycine (stitching residue), C=CCCCC(CCCC=C)(N[*:1])C(=O)[*:2]; BzAm2Allyl = N-terminal 2-allylbenzoic acid (acyl cap), C=CCc1ccccc1C(=O)*; 4pentenyl = N-terminal pent-4-enoic acid (acyl cap), C=CCCC(=O)*; 5hexenyl = N-terminal hex-5-enoic acid (acyl cap), C=CCCCC(=O)*; 3butenyl = N-terminal but-3-enoic acid (acyl cap), C=CCC(=O)*; 5hexenyl″ = N-terminal hex-5-enoic acid cap, C=CCCCC(=O)*; Phe(3-COOH) = N[C@@H](Cc1cccc(C(=O)O)c1)C(=O)O; Phe(2-Cl) = N[C@@H](Cc1ccccc1Cl)C(=O)O; Bta = N[C@@H](Cc1csc2ccccc12)C(=O)O; αAllylPro = C=CC[C@@]1(C(=O)O)CCCN1; tBuAla = CC(C)(C)C[C@H](N)C(=O)O; 3Thi = N[C@@H](Cc1ccsc1)C(=O)O; Cha = N[C@@H](CC1CCCCC1)C(=O)O; αMeP = C[C@@]1(C(=O)O)CCCN1
# B1: I-2606 (peptide)
# peptide: BzAm2Allyl-XD[B5(3)]ADDAAF[PyrS2]L[3Thi][Bta]Q-NH2
# modifications: staple 3-10; staple (positions not given here); not fully specified (residue 1, bridges); printed as BzAm2Allyl-MePro-Asp-B5-Ala-Asp-Asp-Ala-Ala-Phe-PyrS2-Leu-3Thi-BztA-Gln-NH2; also: -CH=CH- in each staple reduced to -CH2-CH2-
# B2: I-2607 (peptide)
# peptide: BzAm2Allyl-XD[B5(3)]AD[Phe(3-COOH)]AAF[PyrS2]L[3Thi][Bta]Q-NH2
# modifications: staple 3-10; staple (positions not given here); not fully specified (residue 1, bridges); printed as BzAm2Allyl-MePro-Asp-B5-Ala-Asp-3COOHF-Ala-Ala-Phe-PyrS2-Leu-3Thi-BztA-Gln-NH2; also: -CH=CH- in each staple reduced to -CH2-CH2-
# B3: I-2609 (peptide)
# peptide: 5hexenyl-XD[B5(3)]ADDAAF[PyrS2]L[3Thi][Bta]Q-NH2
# modifications: staple 3-10; staple (positions not given here); not fully specified (residue 1, bridges); printed as 5hexenyl-MePro-Asp-B5-Ala-Asp-Asp-Ala-Ala-Phe-PyrS2-Leu-3Thi-BztA-Gln-NH2; also: -CH=CH- in each staple reduced to -CH2-CH2-
# B4: I-2601 (peptide)
# peptide: 4pentenyl-XD[B5(3)]ADDAAF[PyrS2]L[3Thi][Bta]Q-NH2
# modifications: staple 3-10; staple (positions not given here); not fully specified (residue 1, bridges); printed as 4pentenyl-MePro-Asp-B5-Ala-Asp-Asp-Ala-Ala-Phe-PyrS2-Leu-3Thi-BztA-Gln-NH2; also: -CH=CH- in each staple reduced to -CH2-CH2-
# B5: I-2605 (peptide)
# peptide: 4pentenyl-XD[B5(3)]AD[Phe(3-COOH)]AAF[PyrS2]L[3Thi][Bta]Q-NH2
# modifications: staple 3-10; staple (positions not given here); not fully specified (residue 1, bridges); printed as 4pentenyl-MePro-Asp-B5-Ala-Asp-3COOHF-Ala-Ala-Phe-PyrS2-Leu-3Thi-BztA-Gln-NH2; also: -CH=CH- in each staple reduced to -CH2-CH2-
# B6: I-2603 (peptide)
# peptide: 4pentenyl-XD[B5(3)]AD[Phe(3-COOH)]AAF[PyrS2]L[3Thi][Bta]Q-NH2
# modifications: staple 3-10; staple (positions not given here); not fully specified (residue 1, bridges); printed as 4pentenyl-MePro-Asp-B5-Ala-Asp-3COOHF-Ala-Ala-Phe-PyrS2-Leu-3Thi-BztA-Gln-NH2
# B7: I-2608 (peptide)
# peptide: 3butenyl-XD[B5(3)]ADDAAF[PyrS2]L[3Thi][Bta]Q-NH2
# modifications: staple 3-10; staple (positions not given here); not fully specified (residue 1, bridges); printed as 3butenyl-MePro-Asp-B5-Ala-Asp-Asp-Ala-Ala-Phe-PyrS2-Leu-3Thi-BztA-Gln-NH2; also: -CH=CH- in each staple reduced to -CH2-CH2-
# B8: I-2598 (peptide)
# peptide: {5hexenyl″}-[αMeP]D[B5(3)]ADDAAF[PyrS2]L[3Thi][Bta]Q-NH2
# modifications: staple 3-10; staple (positions not given here); not fully specified (bridges); printed as 5hexenyl-MePro-Asp-B5-Ala-Asp-Asp-Ala-Ala-Phe-PyrS2-Leu-3Thi-BztA-Gln-NH2
# B9: I-2604 (peptide)
# peptide: 5hexenyl-XD[B5(3)]AD[Phe(3-COOH)]AAF[PyrS2]L[3Thi][Bta]Q-NH2
# modifications: staple 3-10; staple (positions not given here); not fully specified (residue 1, bridges); printed as 5hexenyl-MePro-Asp-B5-Ala-Asp-3COOHF-Ala-Ala-Phe-PyrS2-Leu-3Thi-BztA-Gln-NH2; also: -CH=CH- in each staple reduced to -CH2-CH2-
# B10: I-2600 (peptide)
# peptide: 5hexenyl-XD[B5(3)]ADDAAF[PyrS2]L[3Thi][Bta]Q-NH2
# modifications: staple 3-10; staple (positions not given here); not fully specified (residue 1, bridges); printed as 5hexenyl-MePro-Asp-B5-Ala-Asp-Asp-Ala-Ala-Phe-PyrS2-Leu-3Thi-BztA-Gln-NH2; also: -CH=CH- in each staple reduced to -CH2-CH2-
# B11: I-2602 (peptide)
# peptide: 5hexenyl-XD[B5(3)]AD[Phe(3-COOH)]AAF[PyrS2]L[3Thi][Bta]Q-NH2
# modifications: staple 3-10; staple (positions not given here); not fully specified (residue 1, bridges); printed as 5hexenyl-MePro-Asp-B5-Ala-Asp-3COOHF-Ala-Ala-Phe-PyrS2-Leu-3Thi-BztA-Gln-NH2
# B12: I-1413 (peptide)
# peptide: Ac-[αAllylPro]DN[B5(12)]DDAAFL[PyrS2″][3Thi][Bta]L-NH2
# modifications: staple 1-4, 4-11
# B13: I-1065 (peptide)
# peptide: Ac-[αAllylPro]D[tBuAla][B5(3)]DDAAFL[PyrS2″][Phe(2-Cl)][Bta]S-NH2
# modifications: staple 1-4, 4-11; not fully specified; printed as Ac-PL3-Asp-Npg-B5-Asp-Asp-Ala-Ala-Phe-Leu-PyrS2-2C1F-BztA-Ser-NH2
# B14: I-1066 (peptide)
# peptide: Ac-[αAllylPro]D[tBuAla][B5(3)]DEAAFL[PyrS2″][Phe(2-Cl)][Bta]S-NH2
# modifications: staple 1-4, 4-11; not fully specified; printed as Ac-PL3-Asp-Npg-B5-Asp-Glu-Ala-Ala-Phe-Leu-PyrS2-2C1F-BztA-Ser-NH2
# B15: I-1064 (peptide)
# peptide: Ac-[αAllylPro]D[tBuAla][B5(3)]DDAAFL[PyrS2][Phe(2-Cl)][Bta]S-NH2
# modifications: staple 1-4, 4-11; not fully specified; printed as Ac-PL3-Asp-Npg-B5-Asp-Asp-Ala-Ala-Phe-Leu-PyrS2-2C1F-BztA-Ser-NH2
# B16: I-1068 (peptide)
# peptide: Ac-[αAllylPro]D[tBuAla][B5(3)]DDAAFL[PyrS2″][Phe(2-Cl)][Bta]T-NH2
# modifications: staple 1-4, 4-11; not fully specified; printed as Ac-PL3-Asp-Npg-B5-Asp-Asp-Ala-Ala-Phe-Leu-PyrS2-2C1F-BztA-Thr-NH2
# B17: I-1070 (peptide)
# peptide: Ac-[αAllylPro]D[tBuAla][B5(3)]DEAAFL[PyrS2″][Phe(2-Cl)][Bta]T-NH2
# modifications: staple 1-4, 4-11; not fully specified; printed as Ac-PL3-Asp-Npg-B5-Asp-Glu-Ala-Ala-Phe-Leu-PyrS2-2C1F-BztA-Thr-NH2
# B18: I-1063 (peptide)
# peptide: Ac-[αAllylPro]D[tBuAla][B5(3)]DEAAFL[PyrS2][Phe(2-Cl)][Bta]Q-NH2
# modifications: staple 1-4, 4-11
# B19: I-1069 (peptide)
# peptide: Ac-[αAllylPro]D[tBuAla][B5(3)]DDAAFL[PyrS2″][Phe(2-Cl)][Bta]T-NH2
# modifications: staple 1-4, 4-11; also: staple stereoisomer: later eluting HPLC peak
# B20: I-1067 (peptide)
# peptide: Ac-[αAllylPro]D[tBuAla][B5(3)]DEAAFL[PyrS2″][Phe(2-Cl)][Bta]S-NH2
# modifications: staple 1-4, 4-11; not fully specified; printed as Ac-PL3-Asp-Npg-B5-Asp-Glu-Ala-Ala-Phe-Leu-PyrS2-2C1F-BztA-Ser-NH2
# B21: I-1042 (peptide)
# peptide: Ac-[αAllylPro]D[Cha][B5(16)]DDAAFT[PyrS2″][Phe(2-Cl)][Bta]Q-NH2
# modifications: staple 1-4, 4-11
# Target: full-length beta-Catenin (Uniprot ID P35222) (Homo sapiens (Human)) (UniProt P35222)
# Experiment: cell-based or functional assay
# Target sequence in this assay (P35222 whole entry, one chain of several): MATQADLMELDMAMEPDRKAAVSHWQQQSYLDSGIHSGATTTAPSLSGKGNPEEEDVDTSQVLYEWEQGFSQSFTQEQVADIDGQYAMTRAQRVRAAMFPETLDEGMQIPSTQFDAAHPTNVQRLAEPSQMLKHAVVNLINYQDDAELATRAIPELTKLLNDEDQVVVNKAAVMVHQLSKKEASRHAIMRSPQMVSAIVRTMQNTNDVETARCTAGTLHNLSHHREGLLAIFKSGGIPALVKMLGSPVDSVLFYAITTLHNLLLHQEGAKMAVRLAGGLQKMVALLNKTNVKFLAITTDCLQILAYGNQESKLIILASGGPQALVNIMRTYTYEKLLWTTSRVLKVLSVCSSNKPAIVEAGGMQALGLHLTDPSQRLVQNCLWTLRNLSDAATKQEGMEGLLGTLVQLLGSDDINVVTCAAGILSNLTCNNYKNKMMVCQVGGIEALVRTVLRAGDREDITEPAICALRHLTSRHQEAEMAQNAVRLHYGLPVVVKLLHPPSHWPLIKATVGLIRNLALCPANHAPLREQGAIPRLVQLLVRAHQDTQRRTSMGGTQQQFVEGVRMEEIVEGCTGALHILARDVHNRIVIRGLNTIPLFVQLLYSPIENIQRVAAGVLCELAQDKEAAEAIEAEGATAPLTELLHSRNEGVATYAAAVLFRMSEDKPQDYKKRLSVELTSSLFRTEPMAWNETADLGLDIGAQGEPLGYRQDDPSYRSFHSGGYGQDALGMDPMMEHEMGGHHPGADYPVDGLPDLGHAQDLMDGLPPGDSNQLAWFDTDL
row,DLD1 4% Abs IC50,Binder
1,> 20000 nM,B1
2,> 20000 nM,B2

# Target: full-length beta-Catenin (Uniprot ID P35222) (Homo sapiens (Human)) (UniProt P35222)
# Experiment: fluorescence polarization competition against 5FAM TCF4 10-53 probe
# Target sequence in this assay (P35222 whole entry, one chain of several): as above
row,IC50,Binder
1,2650 nM,B3
2,592 nM,B4
3,734 nM,B1
4,608 nM,B5
5,767 nM,B6
6,904 nM,B2
7,251 nM,B7
8,1350 nM,B8
9,1120 nM,B9
10,923 nM,B10
11,8220 nM,B11

# Target: full-length beta-Catenin (Uniprot ID P35222) (Homo sapiens (Human)) (UniProt P35222)
# Experiment: fluorescence polarization competition; full-length beta-catenin, competitor 5FAM-TCF4 10-53 probe
# Target sequence in this assay (P35222 2-781 limits assumed): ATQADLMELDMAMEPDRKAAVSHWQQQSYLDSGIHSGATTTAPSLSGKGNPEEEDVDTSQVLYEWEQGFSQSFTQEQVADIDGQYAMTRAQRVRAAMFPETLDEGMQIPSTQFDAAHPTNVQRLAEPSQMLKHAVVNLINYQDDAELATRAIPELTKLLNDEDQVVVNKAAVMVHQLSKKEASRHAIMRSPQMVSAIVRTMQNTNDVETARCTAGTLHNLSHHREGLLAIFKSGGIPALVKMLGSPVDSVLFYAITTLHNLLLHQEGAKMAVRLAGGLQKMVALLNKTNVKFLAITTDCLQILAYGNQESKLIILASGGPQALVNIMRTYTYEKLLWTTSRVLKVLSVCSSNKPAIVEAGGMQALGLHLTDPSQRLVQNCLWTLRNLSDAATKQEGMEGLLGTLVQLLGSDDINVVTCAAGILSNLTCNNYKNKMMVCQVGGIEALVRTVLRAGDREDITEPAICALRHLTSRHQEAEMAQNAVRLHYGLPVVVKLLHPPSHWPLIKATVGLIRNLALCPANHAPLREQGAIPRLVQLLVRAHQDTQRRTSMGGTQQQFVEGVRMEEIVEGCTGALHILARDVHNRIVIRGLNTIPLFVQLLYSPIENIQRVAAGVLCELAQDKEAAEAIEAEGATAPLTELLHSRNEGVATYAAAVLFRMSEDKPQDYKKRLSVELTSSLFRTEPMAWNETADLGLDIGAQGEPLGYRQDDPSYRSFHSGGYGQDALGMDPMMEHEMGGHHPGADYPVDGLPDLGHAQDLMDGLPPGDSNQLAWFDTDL
row,IC50,Binder
1,74 nM,B12

# Target: full-length beta-Catenin (Uniprot ID P35222) (Homo sapiens (Human)) (UniProt P35222)
# Experiment: fluorescence polarization competition; full-length beta-catenin, competitor 5FAM-TCF4(10-53) probe
# Target sequence in this assay (P35222 whole entry, one chain of several): as the sequence (P35222 whole entry, one chain of several) above
row,EC50,Binder
1,520 nM,B13
2,789 nM,B14
3,414 nM,B15
4,950 nM,B16
5,1020 nM,B17
6,471 nM,B18
7,920 nM,B19
8,517 nM,B20

# Target: beta-catenin (Homo sapiens (Human)) (UniProt P35222)
# Experiment: fluorescence polarization competition; full-length beta-catenin with 5FAM-TCF4(10-53) probe as competitor
# Chain of beta-catenin (Homo sapiens (Human)) (P35222 whole entry): as the sequence (P35222 whole entry, one chain of several) above
row,EC50,Binder
1,74 nM,B12

# Target: full-length beta-Catenin (Uniprot ID P35222) (Homo sapiens (Human)) (UniProt P35222)
# Experiment: fluorescence polarization competition; full-length beta-catenin with 5FAM-TCF4(10-53) probe, peptide titrated
# Target sequence in this assay (P35222 whole entry, one chain of several): as above
row,IC50,Binder
1,520 nM,B13
2,789 nM,B14
3,414 nM,B15
4,950 nM,B16
5,1020 nM,B17
6,471 nM,B18
7,920 nM,B19
8,5 nM,B21
9,517 nM,B20

# Target: full-length beta-Catenin (Uniprot ID P35222) (Homo sapiens (Human)) (UniProt P35222)
# Experiment: fluorescence polarization competition; 10 nM full-length beta-catenin + 10 nM 5FAM-TCF4 10-53 as competitor probe
# Target sequence in this assay (P35222 2-781 limits assumed): as the sequence (P35222 2-781 limits assumed) above
row,EC50,Binder
1,5 nM,B21
